Results on one substance are retold here after paper PMC10333326.

For the experiment, the target named is NFAT5 (TonEBP) (UniProt O94916). Nature of the experiment: co-immunoprecipitation, Western blot. The note with it: reference: EZH2 wild type; sites S21.

On to EZH2 (from UniProt Q15910) EZH2 S21A, for which the “binding against the reference” value is listed as “weaker”.
